Target: trypsin from bovine pancreas (Sigma, St. Louis) (bovine) (UniProt P00760)
Experiment: inhibition kinetics of trypsin (0.005 µM) digesting EGFP-T/C1 at 0-100 nM leupeptin, absorbance at 490 nm, fitted with Enzfitter

trypsin from bovine pancreas (Sigma, St. Louis) (bovine), sequence (P00760 24-246): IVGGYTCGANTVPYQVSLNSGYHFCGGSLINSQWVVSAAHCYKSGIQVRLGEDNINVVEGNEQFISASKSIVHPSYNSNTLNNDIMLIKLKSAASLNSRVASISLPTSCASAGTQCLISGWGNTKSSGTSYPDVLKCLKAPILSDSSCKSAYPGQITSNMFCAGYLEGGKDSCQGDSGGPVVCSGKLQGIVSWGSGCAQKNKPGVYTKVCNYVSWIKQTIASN

## leupeptin (Sigma, St. Louis) (peptide)
  Ki: 31.1 nM

Source: patent US20150010920A1
